The record followed here is patent US12162911B2, “Pulmonary administration of pyocins for treating bacterial respiratory infections” (priority 2014, dated 2024).

Assay [1] relates to P. aeruginosa P8. In words: Mouse model of acute lung infection, P. aeruginosa P8. The note with it: for Lowest active concentration tested: lowest concentration tested with which the treated mice survived to 24 h; for Corresponding molarity: molarity of lowest active concentration tested. It counts as in vivo, Pseudomonas aeruginosa. The protocol:
Study design. […] For all experiments 6 week-old, female, murine pathogen free C57/BL6 mice weighing 15-21 g were used (Charles Rivers Laboratories, UK). All mice received food and water ad libitum and were housed in groups during the experiments. Power calculations were used to predetermine sample size (n=6, for all treatment experiments). Mice were culled when required as determined by a scoring system or culled at the pre-determined 24 h time point. All mice, including outliers were included in the statistical analysis. Experiments were either carried out once only or repeated once (defined for each experiment).
(§1) Model of acute lung infection. Female C57/BL6 mice were inoculated intranasally with 25 μl of bacterial culture containing approximately 10^7 CFU of the selected P. aeruginosa strain^36. Antibiotic treatments were administered at either 6 h pre-infection or 1 h post-infection and were administered only once. Pyocins or tobramycin dissolved in PBS were administered via intranasal administration as described above. Two different end-points were used in these experiments. In order to determine a reduction in the bacterial load of the lungs compared to the untreated controls, all mice in the experiment were culled by carbon dioxide asphyxiation at the same time; 4-6 h post infection. To determine if mice could survive infection after pyocin or tobramycin treatment, mice were monitored closely, culled by carbon dioxide asphyxiation when required as determined by a scoring system or culled at the pre-determined 24 h time point. Uninfected mice, treated with pyocins, were used as controls in the first series of experiments in order to ensure no adverse effects from pyocin treatment. These controls were stopped in later experiments in order to reduce the number of animals used, once it was clear that the pyocins were not harmful. For CFU determination, lungs were removed aseptically and kept on ice in 750 μl of PBS until homogenised. Serial 10-fold dilutions of the homogenised lung were plated on Pseudomonas selective agar (20 g peptone, 1.5 g K2HPO4, 1.5 g MgSO4·7H2O, 10 ml glycerol, 15 g agar, 0.025 g Irgasan per litre) and incubated at 37° C. for 24 h and then room temperature for 24 h before the colonies were counted.

For assay [2], the system named is P. aeruginosa P5 (mucoid). Nature of the assay: Mouse model of acute lung infection, P. aeruginosa P5. It counts as in vivo, Pseudomonas aeruginosa. On the procedure: as §1
(§2) Since strains of P. aeruginosa are phenotypically diverse, we tested the efficacy of the pyocins against three additional isolates: P. aeruginosa P17 and P. aeruginosa P5 (mucoid), both from cystic fibrosis patients and P. aeruginosa E2, an environmental isolate. Pyocin S2 was not active against P. aeruginosa P5 or P. aeruginosa E2 in vitro therefore was not used to treat these strains in vivo and similarly pyocin L1 was not used against P. aeruginosa P17. […] Lung homogenates from P. aeruginosa E2-infected AP41-treated mice contained high levels of viable bacteria, reduced only 10-fold relative to control mice (Table 1). […] Thus, pyocins show strong efficacy against diverse strains of P. aeruginosa with pyocin S5 treatment displaying the largest effect on reducing bacterial load.

Assay [3] deals with P. aeruginosa E2. Nature of the assay: Mouse model of acute lung infection, P. aeruginosa E2. It counts as in vivo, Pseudomonas aeruginosa. The protocol: as §1, §2
The subject of assay [4] is P8AP41T. In words: Mouse model of acute lung infection, AP41 tolerant strain P8AP41T. It counts as in vivo, Pseudomonas aeruginosa. The settings on record: 3 mg ml^−1 1 h post-infection. On the procedure: as §1
(§3) In order to determine if pyocin tolerance or resistance was acquired upon pyocin treatment in vivo, viable bacteria recovered from mice that survived infection to the 24 h end-point, in all experiments discussed in this work, were tested for pyocin susceptibility. From these experiments no pyocin resistant colonies were isolated. […] Importantly, sensitivity to pyocins S5 and L1 were unaffected in vitro in this pyocin AP41-tolerant strain (FIG. 3a) and this was also shown to be the case in vivo when mice were infected with P8AP41T.

For assay [5], the system named is P8AP41T. Nature of the assay: Pyocin sensitivity in vitro (spot tests) of strain P8AP41T. The note with it: spot tests, FIG. 3a. It counts as cell-based, Pseudomonas aeruginosa. On the procedure: Pyocin sensitivity assays: overlay spot plate method. Soft agar overlay spot plates were performed using the method of ^35. 150 μl of test strain culture at OD600 nm=0.6 was added to 6 ml of 0.8% soft agar and poured over an LB agar plate. 5 μl of bacteriocin, lung homogenate or blood at varying concentrations was spotted onto the plates and incubated for 24 h at 37° C.
as §3

Assay [6] relates to P. aeruginosa PA01. In words: Mouse model of acute lung infection, P. aeruginosa PA01. It counts as in vivo, Pseudomonas aeruginosa. The protocol: as §1, with “Uninfected mice, treated with pyocins, were used as controls in the first series of experiments in order to ensure no adverse effects from pyocin treatment. These controls were stopped in later experiments in order to reduce the number of animals used, once it was clear that the pyocins were not harmful. For CFU determination, lungs were removed aseptically and kept on ice in 750 μl of PBS until homogenised.” left out
A similar experiment was performed using pyocin SD2. […] The bacterial load of the lungs was determined and control mice had approx 2×10^5 CFU/lung, 6 h after infection.

As to `NC[C@H]1O[C@H](O[C@H]2[C@H](O)[C@@H](O[C@H]3O[C@H](CO)[C@@H](O)[C@H](N)[C@H]3O)[C@H](N)C[C@@H]2N)[C@H](N)C[C@@H]1O` [Tobramycin, tobramycin, reference compound], in assay [1] (300 μg ml^−1, 1 h post-infection (FIG. 2b)), the survival entry is given as “survived to 24 h”. The “bacterial counts compared to the PBS controls” value in assay [1] (300 μg ml^−1, 24 h post-infection (FIG. 2b)) is given as “significantly reduced the bacterial counts”. Also, in assay [1], the “Lowest active concentration tested” value amounted to 300 µg/mL and the Corresponding molarity came to 641 µM.

B1: Pyocin L1: lectin-like pyocin, SEQ ID NO: 24; receptor believed to be common polysaccharide antigen of LPS (protein, listed as Pseudomonas aeruginosa)
chain: MASSLAPRQVIRDGQFITSPNGKYKLVMQADGNLVLYEDGTKPIWNTTPVGPGAKAVMEFNLNLYNKAGQVAWSSNVYTAYLFEEFKDEAYLNLQDDGDFGIFSDEAKWGSIVLSRPEVGVKNKIIPTGTVMVPGTEYINGNYRLAFQGDGNLVIYQINPQVVIWATYTMGADRAVVQEDGNFVIYKGTTALWHTHTATGMPAYLKFTNTGKLFLSQPTLLWTLKRGSLSKPPKVIPGQHGPLDTTPIWSWPHDYP
Take B1: the “mice culled at 6 h post-infection due to the severity of symptoms” value in assay [1] (30 μg ml^−1, six mice) is “three of the six”. Further, the survival result was “survived until the endpoint of the experiment at 24 h post-infection” in assay [1] (300 μg ml^−1, endpoint 24 h post-infection) and “survived until the endpoint of the experiment at 24 h” in assay [4] (endpoint 24 h, PBS controls culled 6 h post-infection (FIG. 3b)). Moreover, the “reduction of bacterial load in lung” value in assay [1] (3 mg ml^−1 intranasal 1 h post-infection, culled 4.5 h post-infection (FIG. 1c)) is listed as “approximately 20 fold”. Moreover, in assay [1] (C57/BL6 mice, 3 mg ml^−1 intranasal 6 h pre-infection, culled 4 h post-infection (FIG. 1a)), the “reduction of bacterial numbers in lung” value is recorded as approximately 1500 fold. The “Lowest active concentration tested” value in assay [1] worked out at 30 µg/mL. Moreover, the Corresponding molarity in assay [1] was 1.06 µM. In addition, the survival / protection entry in assay [2] (pyocin 3 mg ml^−1, endpoint 24 h, infected controls culled at 4.5 h) was “survived until the 24 h endpoint”; in assay [3] (pyocin 3 mg ml^−1, endpoint 24 h, infected controls culled at 5.5 h), “survived until the 24 h endpoint”. Further, in assay [2] (pyocin 3 mg ml^−1, treated mice survived to 24 h, no treatment 1.7 × 10^5 CFU/lung), the “bacterial count in lung, P5” value was determined as 40 CFU/lung. In addition, in assay [3] (pyocin 3 mg ml^−1, treated mice survived to 24 h, no treatment 1.5 × 10^5 CFU/lung), the “bacterial count in lung, E2” value is given as “No colonies”. Moreover, the “bacterial numbers in lung homogenates” value in assay [4] (24 h (FIG. 3b)) is on record as “significantly reduced bacterial numbers”. Further, in assay [5], the “sensitivity of the pyocin AP41-tolerant strain in vitro” value is reported as “unaffected”.

B2: Pyocin SD2: S-type pyocin, SEQ ID NO: 7; targeting domain binds LPS common polysaccharide antigen (protein, listed as Pseudomonas aeruginosa)
chain: MAVNDYEPGSMVITHVQGGGRDIIQYIPARSSYGTPPFVPPGPSPYVGTGMQEYRKLRSTLDKSHSELKKNLKNETLKEVDELKSEAGLPGKAVSANDIRDEKSIVDALMDAKAKSLKAIEDRPANLYTASDFPQKSESMYQSQLLASRKFYGEFLDRHMSELAKAYSADIYKAQIAILKQTSQELENKARSLEAEAQRAAAEVEADYKARKANVEKKVQSELDQAGNALPQLTNPTPEQWLERATQLVTQAIANKKKLQTANNALIAKAPNALEKQKATYNADLLVDEIASLQARLDKLNAETARRKEIARQAAIRAANTYAMPANGSVVATAAGRGLIQVAQGAASLAQAISDAIAVLGRVLASAPSVMAVGFASLTYSSRTAEQWQDQTPDSVRYALGMDANKLGLTSSVNLSAVAKAGGTVDLPMRLTNEARGNTTTLSVVSTDGVSVPKAAPVRMAAYNATTGLYEVTVPSTTAEAPPLILTWTPASPPGNQNPSSTTPVIPKPVPVYEGAALTPLKTGPESYPGMLLDLNDLIVIFPADSGVKPVYVMLSSPLDSGIFTRRQLQKKFDSHKYDFGLGEKSANNGTLAEFRDKILEHLADPATVEKGTYHSEVNSKVHYNARTNIVVIIGEDGMFVSGWRIEPGTDQYNFYMKNEVL
With B2, in assay [6] (3 mg ml^−1 1 h post-infection, 24 h post-infection, control approx 2×10^5 CFU/lung at 6 h), the “bacterial load of the lungs” value was “no colonies or 10”. In assay [6] (C57/BL6 mice, 3 mg ml^−1 intranasal 1 h post-infection, endpoint 24 h (FIG. 7)), the survival entry is given as “survived to the endpoint of the experiment at 24 h”.
